Two molecules from patent publication US20230212304A1 (BIOSION, published 2023) can be followed below.

Like-named read-outs stand apart in the source and are kept apart here. A value given as a limit tells only on which side of the number the result lay.

In assay [1] the target is T1, recombinant human CTLA4 protein with human IgG1 Fc tag at the C-terminus (Acro biosystems, Cat#CT4-H5255) (human, UniProt P16410 37-162).
T1 construct: bought protein; also called human CTLA4-Fc; CTLA4-Fc; not shown: human IgG1 Fc tag at the C-terminus
T1 sequence (looked up): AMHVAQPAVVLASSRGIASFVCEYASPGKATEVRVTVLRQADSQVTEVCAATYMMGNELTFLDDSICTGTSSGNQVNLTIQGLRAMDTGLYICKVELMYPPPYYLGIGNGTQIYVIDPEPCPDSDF
Nature of the assay: capture ELISA: antibody captured on coated plate (anti-human IgG Fc for the chimeric antibodies), biotin human CTLA4-Fc, streptavidin-HRP, OD(450-630). (In general: In an ELISA, binding on a coated surface is turned into a signal by an enzyme label.)

For assay [2], the target named is T1, recombinant human CTLA4 protein with …. Description: cell based blocking FACS: antibody pre-mixed with human CTLA4-Fc, added to Daudi cells; blocked ligands: cell surface CD80/CD86.
The target is the same in assay [3]. Nature of the assay: cell based blocking FACS: antibody pre-mixed with human CTLA4-Fc (1 ug/mL), added to Daudi cells; blocked ligands: cell surface CD80/CD86. The protocol:
(§1) Daudi cells were harvested from cell culture flasks at the log phase, washed twice and re-suspended in PBS containing 2% v/v Fetal Bovine Serum (FACS buffer). […] Cells were washed twice and re-suspended in FACS buffer. Fluorescence was measured using a Becton Dickinson FACS Canto II-HTS equipment. Data was analyzed using Graphpad Prism software and IC₅₀ values were reported.

For assay [4] the target is unchanged. Nature of the assay: cell-based or functional assay.
The target is the same in assay [5]. Nature of the assay: capture ELISA (plate coated with goat anti-human IgG F(ab')2 per paragraph 181), biotin human CTLA4-Fc, streptavidin-HRP, OD(450-630). The protocol: Plates were washed once with wash buffer (PBS+0.05% v/v Tween-20, PBST) and then blocked with 200 µl/well blocking buffer (PBST with 5% w/v non-fatty milk) for 2 hours at 37° C. […] After a final wash, plates were incubated with 100 µl/well substrate TMB (Innoreagents, Cat#TMB-S-002). The reaction was stopped in 15 minutes at room temperature with 50 µl/well 1M H₂SO₄, and the absorbance of the each well was read on a microplate reader using dual wavelength mode with 450 nm for TMB and 630 nm as the reference wavelength, then the OD (450-630) values were plotted against antibody concentration. Data was analyzed using Graphpad Prism software and EC₅₀ values were reported.
(§2) In the capture ELISA assay, the 96-well micro plates were coated with 2 µg/ml goat anti-human IgG (AffiniPure Goat Anti-Human IgG, F(ab′)₂ fragment specific, Jackson Immunoresearch, Cat#109-005-097) instead of the goat anti-mouse IgG F(ab′)₂ fragment, 100 µl/well.

Assay [6] shares this target. Nature of the assay: cell based blocking FACS: antibody pre-mixed with human CTLA4-Fc, added to Daudi cells; blocked ligands: cell surface CD80/CD86. Here is the method: as §1
The source holds these as a separate data set.

The target is the same in assay [7]. Nature of the assay: competitive ELISA: antibody pre-mixed with biotin human CTLA4-Fc (65 ng/ml), added to plate coated with the benchmark; competitor: coated Yervoy.
Assay [8] has the same target. Nature of the assay: capture ELISA: antibody captured on anti-mouse IgG F(ab')2 coated plate, biotin human CTLA4-Fc 26 ng/ml, streptavidin-HRP, OD(450-630).
In assay [9] the target is T2, recombinant human CTLA4-his protein (Acro biosystems, Cat#CT4-H5229) (human, UniProt P16410 37-162).
T2 construct: bought recombinant protein; not shown: his tag
T2 sequence (looked up): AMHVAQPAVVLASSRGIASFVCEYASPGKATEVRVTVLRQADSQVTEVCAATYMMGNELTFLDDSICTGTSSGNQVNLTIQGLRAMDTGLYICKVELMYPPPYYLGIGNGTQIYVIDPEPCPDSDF
Description: SPR, Biacore T200; antibody captured, CTLA4-his as analyte. The protocol:
(§3) Un-reacted moieties on the biosensor surface were blocked with ethanolamine. […] The antigen-antibody association kinetics was followed for 2 minutes and the dissociation kinetics was followed for 10 minutes. The association and dissociation curves were fit to a 1:1 Langmuir binding model using BIAcore evaluation software.
In general terms: Surface plasmon resonance follows binding to a sensor surface in real time, without labels.

For assay [10], the target named is T3, cynomolgus monkey CTLA4-his protein (Acro biosystems, Cat#CT4-C5227) (cynomolgus monkey, UniProt G7PL88 36-161).
T3 construct: bought recombinant protein; also called Cynomolgus CTLA4-his; not shown: his tag
T3 sequence: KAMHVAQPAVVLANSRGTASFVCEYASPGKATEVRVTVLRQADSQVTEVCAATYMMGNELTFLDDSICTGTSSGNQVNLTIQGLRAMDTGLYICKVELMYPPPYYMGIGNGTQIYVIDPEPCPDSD
The assay is described as above. Here is the method: as §3

For assay [11], the target named is T1, recombinant human CTLA4 protein with …. Nature of the assay: competitive ELISA: antibody pre-mixed with biotin human CTLA4-Fc, added to plate coated with the benchmark; competitor: coated Yervoy. Here is the method: Plates were washed once with wash buffer, blocked with 200 µl PBST with 5% w/v non-fatty milk, incubated for 2 hours at 37° C., and washed 4 times.
After incubation at 37° C. for 40 minutes, plates were washed 4 times again using wash buffer. Then the plates were added and incubated with 100 µl/well streptavidin conjugated HRP (1:10000 dilution in PBST, Jackson Immuno Research, Cat#016-030-084, 100 µl/well) for 40 minutes at 37° C. Plates were finally washed using wash buffer. Finally, TMB was added and the reaction was stopped using 1M H₂SO₄, and the absorbance of the each well was read on a microplate reader using dual wavelength mode with 450 nm for TMB and 630 nm as the reference wavelength, then the OD (450-630) values were plotted against antibody concentration. Data was analyzed using Graphpad Prism software and IC₅₀ values were reported.
as §2

Assay [12] has the same target. Description: cell-based or functional assay. This is another data set of the same source.
Assay [13] addresses T2, recombinant human CTLA4-his protein …. Description: BLI, Octet; antibody at 5 ug/ml on AHC sensor, CTLA4-his as analyte. Here is the method: Briefly, AHC biosensors (anti-human IgG Fc capture, from ForteBio) were presoaked with 10 mM glycine (pH 1.5) for 3 seconds, and then dipped in a well with running buffer (0.5% w/v BSA in PBST) for 3 seconds, the soaking and dipping steps were repeated for three times. […] A new baseline was run for 180 seconds in another well with running buffer. […] Finally, sensors were presoaked with 10 mM glycine (pH 1.5) for 3 seconds, and then were dipped in a well with running buffer for 3 seconds, the soaking and dipping steps repeated for three times. The association and dissociation curves were fit to a 1:1 Langmuir binding model using ForteBio Data Analysis 8.1.

For assay [14] the target is unchanged. Description: SPR, Biacore; antibody captured on anti-human IgG CM5 chip, CTLA4-his as analyte. The protocol:
(§4) Un-reacted moieties on the biosensor surface were blocked with ethanolamine. […] The antigen-antibody association kinetics was followed for 2 minutes and the dissociation kinetics was followed for 10 minutes. The association and dissociation curves were fit to a 1:1 Langmuir binding model using BIAcore evaluation software. […]

Assay [15] deals with T3, cynomolgus monkey CTLA4-his protein …. The description is as above. Here is the method:
as §4

The target in assay [16] is T2, recombinant human CTLA4-his protein …. Nature of the assay: BLI, Octet RED96; antibody on AHC sensor, CTLA4-his as analyte.

A word on the EC50: it is the concentration at which the effect is half-maximal. For orientation: IC50 means the concentration that gives 50% inhibition. By Kd is commonly meant the equilibrium constant for the complex coming apart. As a reminder, the koff is a measure of how fast the partners let go of each other. For orientation: kon means a measure of how fast the partners come together.

B1: mouse anti-CTLA4 monoclonal antibody D1D5 (antibody, V domains shown)
VH: EVKLVESGGGLVKPGGSLKLSCAASGFTFSDYGMAWVRQAPGKGPEWVAFISNLAYSVYYADTETGRFTISREDAKNTLYLEMSSLRSEDTAMYYCARSGLPYAMDYWGQGTSVTVSS
VL: DIQMTQTTSSLSASLGDRVTISCRASQDISNYLNWYQQKPDGTVKLLIYYISRLHSGVPSRFSGSGSGTDFSLTISNLEQEDIATYFCQQGRMLPWTFGGGTRLEIK
notes: mouse mAb purified from hybridoma supernatant
For B1, the results for the EC50 in [1], in assay [5] and in assay [8] were 0.632 nM, 0.778 nM and 0.103 nM, respectively. Also, the IC50 in assay [2] was 9.67 nM; in assay [3] it was 4.77 nM; in assay [6], 5.82 nM; in [7], 0.646 nM; in assay [11], 5.75 nM. For the same molecule, the results for the “EC50 of IL-2 release (GS-J1 T cells + GS-C1/CD80 cells + human CTLA4-Fc, IL-2 HTRF)” value in [4] and in assay [12] were 42.3 nM and 37.5 nM, respectively. For the same molecule, the Kd was 1.89 nM in assay [9] and 4.67 nM in [10]. Besides, the results for the koff in [9] and in [10] were 0.000276 s⁻¹ and 0.00047 s⁻¹, respectively. For the same molecule, the kon in assay [9] is 146000 M⁻¹ s⁻¹; in [10] it was 101000 M⁻¹ s⁻¹.

B2: chimeric D1D5 anti-CTLA4 antibody (antibody, human IgG4 S228P, kappa, V domains shown)
VH: EVKLVESGGGLVKPGGSLKLSCAASGFTFSDYGMAWVRQAPGKGPEWVAFISNLAYSVYYADTETGRFTISREDAKNTLYLEMSSLRSEDTAMYYCARSGLPYAMDYWGQGTSVTVSS
VL: DIQMTQTTSSLSASLGDRVTISCRASQDISNYLNWYQQKPDGTVKLLIYYISRLHSGVPSRFSGSGSGTDFSLTISNLEQEDIATYFCQQGRMLPWTFGGGTRLEIKR
notes: mouse variable domains on human IgG4/kappa, made in 293F cells
With B2, the concentration giving a half-maximal response (EC50) in assay [1] turned out to be 0.992 nM; in assay [5] it was 0.575 nM. Also, the IC50 in assay [2] stood at 12.6 nM; in assay [6], 6 nM; in assay [11], 0.785 nM. The Kd is less than 0.001 nM in [13], 1.93 nM in [14], 0.968 nM in [15] and 5.32 nM in assay [16]. Further, the koff was less than 1e-07 s⁻¹ in [13], 0.000404 s⁻¹ in [14], 0.000505 s⁻¹ in [15] and 0.00166 s⁻¹ in [16]. Besides, the kon in assay [13] is 132000 M⁻¹ s⁻¹; in [14] it was 209000 M⁻¹ s⁻¹; in [15], 521000 M⁻¹ s⁻¹; in assay [16], 312000 M⁻¹ s⁻¹. In [4], the “EC50 of IL-2 release (GS-J1 T cells + GS-C1/CD80 cells + human CTLA4-Fc, IL-2 HTRF)” value was 82.1 nM.
